B1: ZNF449 (parent)
chain: RIHSGEEPHKCPECGKRFLRSSDL
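Also: lentivirally expressed fusions sorted by FACS into six bins by GFP to DsRed ratio, PSI derived from sequencing read proportions per bin multiplied by bin number.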

The data set covers variants of B1. Kind of data set: protein stability index of a GFP-peptide fusion (GPS, HEK-293T) (PSI 1-6); higher = more stable. The note with it: c terminus: a fixed tail appended.
As to RNHSGEEPHKCPECGKRFLRSSDL [I2N], the protein stability index stood at 4.19. For the variant RSHSGEEPHKCPECGKRFLRSSDL [I2S], the protein stability index is 3.18. In the case of RMHSGEEPHKCPECGKRFLRSSDL [I2M] it was 3.48; in that of RKHSGEEPHKCPECGKRFLRSSDL [I2K], 3.43; in that of RGHSGEEPHKCPECGKRFLRSSDL [I2G], 2.78.

As for RFHSGEEPHKCPECGKRFLRSSDL [I2F], the protein stability index stood at 3.1. In the case of RHHSGEEPHKCPECGKRFLRSSDL [I2H], the protein stability index was found to be 3.46. Turning to RCHSGEEPHKCPECGKRFLRSSDL [I2C], the protein stability index turned out to be 5.05. Next, RRHSGEEPHKCPECGKRFLRSSDL [I2R]: 3.7; RPHSGEEPHKCPECGKRFLRSSDL [I2P]: 3.57; RAHSGEEPHKCPECGKRFLRSSDL [I2A]: 3.42. Consider RDHSGEEPHKCPECGKRFLRSSDL [I2D], for which the protein stability index is 4.06.

For RTHSGEEPHKCPECGKRFLRSSDL [I2T], the protein stability index stood at 4.76. Regarding RQHSGEEPHKCPECGKRFLRSSDL [I2Q], the protein stability index turned out to be 3.91. Turning to REHSGEEPHKCPECGKRFLRSSDL [I2E], the protein stability index is 3.5.

Consider RLHSGEEPHKCPECGKRFLRSSDL [I2L], for which the protein stability index stood at 3.77.

Turning to RYHSGEEPHKCPECGKRFLRSSDL [I2Y], the protein stability index was 3.79.

For RVHSGEEPHKCPECGKRFLRSSDL [I2V], the protein stability index was found to be 3.98. Next, RWHSGEEPHKCPECGKRFLRSSDL [I2W]: 3.9; RIHSGELPHKCPECGKRFLRSSDL [E7L]: 2.98. Turning to RIHSGEFPHKCPECGKRFLRSSDL [E7F], the protein stability index was 2.98. As to RIHSGEIPHKCPECGKRFLRSSDL [E7I], the protein stability index stood at 2.68. For the variant RIHSGEAPHKCPECGKRFLRSSDL [E7A], the protein stability index worked out at 2.71.

Turning to RIHSGETPHKCPECGKRFLRSSDL [E7T], the protein stability index worked out at 3.04. As for RIHSGEQPHKCPECGKRFLRSSDL [E7Q], the protein stability index was determined as 3.26. RIHSGEGPHKCPECGKRFLRSSDL [E7G]: the protein stability index is 2.81.

With RIHSGEDPHKCPECGKRFLRSSDL [E7D], the protein stability index was determined as 2.82.

As for RIHSGERPHKCPECGKRFLRSSDL [E7R], the protein stability index was determined as 1.89. RIHSGEKPHKCPECGKRFLRSSDL [E7K]: the protein stability index came out at 2.46. Next, RIHSGEYPHKCPECGKRFLRSSDL [E7Y]: 2.71; RIHSGECPHKCPECGKRFLRSSDL [E7C]: 4.79.

Regarding RIHSGENPHKCPECGKRFLRSSDL [E7N], the protein stability index was 2.51. Take RIHSGEVPHKCPECGKRFLRSSDL [E7V]: the protein stability index turned out to be 2.96. With RIHSGEMPHKCPECGKRFLRSSDL [E7M], the protein stability index was determined as 3.22. As for RIHSGEPPHKCPECGKRFLRSSDL [E7P], the protein stability index was found to be 2.95. For the variant RIHSGEHPHKCPECGKRFLRSSDL [E7H], the protein stability index came out at 3.45. As for RIHSGDEPHKCPECGKRFLRSSDL [E6D], the protein stability index is 3.25. Regarding RIHSGLEPHKCPECGKRFLRSSDL [E6L], the protein stability index came out at 2.92. On to RIHSGIEPHKCPECGKRFLRSSDL [E6I], for which the protein stability index was 3.09. RIHSGGEPHKCPECGKRFLRSSDL [E6G]: the protein stability index was 3.23. Turning to RIHSGHEPHKCPECGKRFLRSSDL [E6H], the protein stability index turned out to be 2.79.

Consider RIHSGAEPHKCPECGKRFLRSSDL [E6A], for which the protein stability index worked out at 3.24. As to RIHSGREPHKCPECGKRFLRSSDL [E6R], the protein stability index came to 3.24. In the case of RIHSGTEPHKCPECGKRFLRSSDL [E6T], the protein stability index came to 2.71. As to RIHSGVEPHKCPECGKRFLRSSDL [E6V], the protein stability index worked out at 2.28. For RIHSGMEPHKCPECGKRFLRSSDL [E6M], the protein stability index is 2.57. Next, RIHSGKEPHKCPECGKRFLRSSDL [E6K]: 2.88. As for RIHSGNEPHKCPECGKRFLRSSDL [E6N], the protein stability index was found to be 3.08. Turning to RIHSGSEPHKCPECGKRFLRSSDL [E6S], the protein stability index was 1.79. On to RIHSGPEPHKCPECGKRFLRSSDL [E6P], for which the protein stability index is 3.69. Turning to RIHSGWEPHKCPECGKRFLRSSDL [E6W], the protein stability index was 2.08.

As for RIHSGYEPHKCPECGKRFLRSSDL [E6Y], the protein stability index was 2.27. With RIHSGQEPHKCPECGKRFLRSSDL [E6Q], the protein stability index came to 3.1. In the case of RIHSGFEPHKCPECGKRFLRSSDL [E6F] it was 2.95; in that of RIHSGEEPHKCAECGKRFLRSSDL [P12A], 3.15; in that of RIHSGEEPHKCCECGKRFLRSSDL [P12C], 3.32. Take RIHSGEEPHKCEECGKRFLRSSDL [P12E]: the protein stability index came to 4.41. For RIHSGEEPHKCFECGKRFLRSSDL [P12F], the protein stability index stood at 3.29. In the case of RIHSGEEPHKCDECGKRFLRSSDL [P12D] it was 4.36. RIHDGEEPHKCPECGKRFLRSSDL [S4D]: the protein stability index was determined as 3.56. Turning to RIHNGEEPHKCPECGKRFLRSSDL [S4N], the protein stability index is 4. Consider RIHVGEEPHKCPECGKRFLRSSDL [S4V], for which the protein stability index amounted to 2.44.

As for RIHLGEEPHKCPECGKRFLRSSDL [S4L], the protein stability index is 3.19. Turning to RIHKGEEPHKCPECGKRFLRSSDL [S4K], the protein stability index is 3.19. RIHIGEEPHKCPECGKRFLRSSDL [S4I]: the protein stability index was 3.07. Turning to RIHMGEEPHKCPECGKRFLRSSDL [S4M], the protein stability index was determined as 2.55. With RIHYGEEPHKCPECGKRFLRSSDL [S4Y], the protein stability index turned out to be 2.84.

RIHAGEEPHKCPECGKRFLRSSDL [S4A]: the protein stability index was 3.34. Consider RIHPGEEPHKCPECGKRFLRSSDL [S4P], for which the protein stability index was found to be 3.16.

As to RIHTGEEPHKCPECGKRFLRSSDL [S4T], the protein stability index came to 3.53.

Turning to RIHEGEEPHKCPECGKRFLRSSDL [S4E], the protein stability index is 3.7. For RIHFGEEPHKCPECGKRFLRSSDL [S4F], the protein stability index came to 2.3. For RIHGGEEPHKCPECGKRFLRSSDL [S4G], the protein stability index worked out at 3.06.

Turning to RIHHGEEPHKCPECGKRFLRSSDL [S4H], the protein stability index amounted to 3.18. In the case of RIHRGEEPHKCPECGKRFLRSSDL [S4R] it was 2.54; in that of RIHQGEEPHKCPECGKRFLRSSDL [S4Q], 4.12; in that of RIHWGEEPHKCPECGKRFLRSSDL [S4W], 2.5.

Turning to RIHSGEEPHICPECGKRFLRSSDL [K10I], the protein stability index was found to be 3.74. Next, RIHSGEEPHLCPECGKRFLRSSDL [K10L]: 3.96; RIHSGEEPHMCPECGKRFLRSSDL [K10M]: 3.17; RIHSGEEPHSCPECGKRFLRSSDL [K10S]: 3. Next, RIHSGEEPHECPECGKRFLRSSDL [K10E]: 3.57; RIHSGEEPHDCPECGKRFLRSSDL [K10D]: 4.19; RIHSGEEPHPCPECGKRFLRSSDL [K10P]: 3.7.

On to RIHSGEEPHNCPECGKRFLRSSDL [K10N], for which the protein stability index was determined as 3.42. Turning to RIHSGEEPHRCPECGKRFLRSSDL [K10R], the protein stability index was determined as 3.55. Turning to RIHSGEEPHWCPECGKRFLRSSDL [K10W], the protein stability index was determined as 3.72. In the case of RIHSGEEPHTCPECGKRFLRSSDL [K10T], the protein stability index came to 3.82. In the case of RIHSGEEPHHCPECGKRFLRSSDL [K10H] it was 2.95; in that of RIHSGEEPHVCPECGKRFLRSSDL [K10V], 4.17. In the case of RIHSGEEPHYCPECGKRFLRSSDL [K10Y], the protein stability index is 3.94. As to RIHSGEEPHACPECGKRFLRSSDL [K10A], the protein stability index came to 3.35.

As for RIHSGEEPHQCPECGKRFLRSSDL [K10Q], the protein stability index stood at 3.39.

RIHSGEEPHGCPECGKRFLRSSDL [K10G]: the protein stability index worked out at 3.82.
